# Patent publication US20150328292A1, “CASPASE POLYPEPTIDES HAVING MODIFIED ACTIVITY AND USES THEREOF” (BELLICUM PHARMACEUTICALS, INC., priority 2014, published 2015)
# System: HEK293T/16 cells
# Assay: SEAP reporter-based surrogate killing assay (basal activity and AP1903 IC50)
# Assay type: cell-based, human
# Details: AP1903-independent SEAP activity, vs wild type
# Procedure: FIG. 45 provides a schematic of an analysis of SEAP assays. […] of the mixture was seeded onto each well of a 96-well plate. […] For the assay, 4-methylumbelliferyl phosphate substrate was hydrolyzed by SEAP to 4-methylumbelliferon, a metabolite that can be excited with 364 nm and detected with an emission filter of 448 nm. Since SEAP is used as a marker for cell viability, reduced SEAP reading corresponds with increased icaspase-9 activities.
# Early passage HEK293T/16 cells (ATCC, Manassas, Va.) were maintained in IMDM, GlutaMAX™ (Life Technologies, Carlsbad, Calif.) supplemented with 10% FBS, 100 U/mL penicillin, and 100 […] until transfection in a humidified, 37° C., 5% CO2/95% air atmosphere. Cells in logarithmic-phase growth were transiently transfected with 800 ng to 2 μg of expression plasmid encoding iCasp9 mutants and 500 ng of an expression plasmid encoding SRα promoter driven SEAP per million cells in 15-mL conical tubes. […] GeneJammer® Transfection Reagent at a ratio of 3 μl per ug of plasmid DNA was used to transiently transfect HEK293T/16 cells in the absence of antibiotics. 100 μl or 2 mL of the transfection mixture was added to each well in 96-well or 6-well plate, respectively.
# Briefly, after 65° C. heat denaturation for 45 minutes to reduce background caused by endogenous (and serum-derived) alkaline phosphatases that are sensitive to heat, 5 μl of supernatants was added to 95 μl of PBS and added to 100 μl of substrate buffer, containing 1 μl of 100 mM 4-methylumbelliferyl phosphate (4-MUP; Sigma, St. Louis, Mo.) re-suspended in 2 M diethanolamine. Hydrolysis of 4-MUP by SEAP produces a fluorescent […] with excitation/emission (355/460 nm), which can be easily measured. Assays were performed in black opaque 96-well plates to minimize fluorescence leakage between wells (FIG. 45).
row,Molecule,basal activity / basal signaling (in words)
1,"^316ATPF^319AVPI: caspase-9 with ATPF tetrapeptide replaced by SMAC/DIABLO AVPI (protein, UniProt P55211 1-416, looked up, variant T317V F319I) MDEADRRLLRRCRLRLVEELQVDQLWDALLSRELFRPHMIEDIQRAGSGSRRDQARQLIIDLETRGSQALPLFISCLEDTGQDMLASFLRTNRQAAKLSKPTLENLTPVVLRPEIRKPEVLRPETPRPVDIGSGGFGDVGALESLRGNADLAYILSMEPCGHCLIINNVNFCRESGLRTRTGSNIDCEKLRRRFSSLHFMVEVKGDLTAKKMVLALLELAQQDHGALDCCVVVILSHGCQASHLQFPGAVYGTDGCPVSVEKIVNIFNGTSCPSLGGKPKLFFIQACGGEQKDHGFEVASTSPEDESPGSNPEPDAVPIQEGLRTFDQLDAISSLPTPSDIFVSYSTFPGFVSWRDPKSGSWYVETLDDIFEQWAHSEDLQSLLLRVANAVSVKGIYKQMPGCFNFLRKKLFFKTS",no effect
2,D327G: chimeric modified caspase-9 polypeptide variant (protein) VDGFGDVGALESLRGNADLAYILSMEPCGHCLIINNVNFCRESGLRTRTGSNIDCEKLRRRFSSLHFMVEVKGDLTAKKMVLALLELARQDHGALDCCVVVILSHGCQASHLQFPGAVYGTDGCPVSVEKIVNIFNGTSCPSLGGKPKLFFIQACGGEQKDHGFEVASTSPEDESPGSNPEPDATPFQEGLRTFGQLDAISSLPTPSDIFVSYSTFPGFVSWRDPKSGSWYVETLDDIFEQWAHSEDLQSLLLRVANAVSVKGIYKQMPGCFNFLRKKLFFKTSASRA,did not lower basal activity
3,L329G: chimeric modified caspase-9 polypeptide variant (protein) VDGFGDVGALESLRGNADLAYILSMEPCGHCLIINNVNFCRESGLRTRTGSNIDCEKLRRRFSSLHFMVEVKGDLTAKKMVLALLELARQDHGALDCCVVVILSHGCQASHLQFPGAVYGTDGCPVSVEKIVNIFNGTSCPSLGGKPKLFFIQACGGEQKDHGFEVASTSPEDESPGSNPEPDATPFQEGLRTFDQGDAISSLPTPSDIFVSYSTFPGFVSWRDPKSGSWYVETLDDIFEQWAHSEDLQSLLLRVANAVSVKGIYKQMPGCFNFLRKKLFFKTSASRA,did not lower basal activity
4,Q328R: chimeric modified caspase-9 polypeptide variant (protein) VDGFGDVGALESLRGNADLAYILSMEPCGHCLIINNVNFCRESGLRTRTGSNIDCEKLRRRFSSLHFMVEVKGDLTAKKMVLALLELARQDHGALDCCVVVILSHGCQASHLQFPGAVYGTDGCPVSVEKIVNIFNGTSCPSLGGKPKLFFIQACGGEQKDHGFEVASTSPEDESPGSNPEPDATPFQEGLRTFDRLDAISSLPTPSDIFVSYSTFPGFVSWRDPKSGSWYVETLDDIFEQWAHSEDLQSLLLRVANAVSVKGIYKQMPGCFNFLRKKLFFKTSASRA,did not lower basal activity
5,F326K: chimeric modified caspase-9 polypeptide variant (protein) VDGFGDVGALESLRGNADLAYILSMEPCGHCLIINNVNFCRESGLRTRTGSNIDCEKLRRRFSSLHFMVEVKGDLTAKKMVLALLELARQDHGALDCCVVVILSHGCQASHLQFPGAVYGTDGCPVSVEKIVNIFNGTSCPSLGGKPKLFFIQACGGEQKDHGFEVASTSPEDESPGSNPEPDATPFQEGLRTKDQLDAISSLPTPSDIFVSYSTFPGFVSWRDPKSGSWYVETLDDIFEQWAHSEDLQSLLLRVANAVSVKGIYKQMPGCFNFLRKKLFFKTSASRA,did not lower basal activity
6,Q328K: chimeric modified caspase-9 polypeptide variant (protein) VDGFGDVGALESLRGNADLAYILSMEPCGHCLIINNVNFCRESGLRTRTGSNIDCEKLRRRFSSLHFMVEVKGDLTAKKMVLALLELARQDHGALDCCVVVILSHGCQASHLQFPGAVYGTDGCPVSVEKIVNIFNGTSCPSLGGKPKLFFIQACGGEQKDHGFEVASTSPEDESPGSNPEPDATPFQEGLRTFDKLDAISSLPTPSDIFVSYSTFPGFVSWRDPKSGSWYVETLDDIFEQWAHSEDLQSLLLRVANAVSVKGIYKQMPGCFNFLRKKLFFKTSASRA,did not lower basal activity
7,L329K: chimeric modified caspase-9 polypeptide variant (protein) VDGFGDVGALESLRGNADLAYILSMEPCGHCLIINNVNFCRESGLRTRTGSNIDCEKLRRRFSSLHFMVEVKGDLTAKKMVLALLELARQDHGALDCCVVVILSHGCQASHLQFPGAVYGTDGCPVSVEKIVNIFNGTSCPSLGGKPKLFFIQACGGEQKDHGFEVASTSPEDESPGSNPEPDATPFQEGLRTFDQKDAISSLPTPSDIFVSYSTFPGFVSWRDPKSGSWYVETLDDIFEQWAHSEDLQSLLLRVANAVSVKGIYKQMPGCFNFLRKKLFFKTSASRA,did not lower basal activity
8,A331K: chimeric modified caspase-9 polypeptide variant (protein) VDGFGDVGALESLRGNADLAYILSMEPCGHCLIINNVNFCRESGLRTRTGSNIDCEKLRRRFSSLHFMVEVKGDLTAKKMVLALLELARQDHGALDCCVVVILSHGCQASHLQFPGAVYGTDGCPVSVEKIVNIFNGTSCPSLGGKPKLFFIQACGGEQKDHGFEVASTSPEDESPGSNPEPDATPFQEGLRTFDQLDKISSLPTPSDIFVSYSTFPGFVSWRDPKSGSWYVETLDDIFEQWAHSEDLQSLLLRVANAVSVKGIYKQMPGCFNFLRKKLFFKTSASRA,did not lower basal activity
9,D327R: chimeric modified caspase-9 polypeptide variant (protein) VDGFGDVGALESLRGNADLAYILSMEPCGHCLIINNVNFCRESGLRTRTGSNIDCEKLRRRFSSLHFMVEVKGDLTAKKMVLALLELARQDHGALDCCVVVILSHGCQASHLQFPGAVYGTDGCPVSVEKIVNIFNGTSCPSLGGKPKLFFIQACGGEQKDHGFEVASTSPEDESPGSNPEPDATPFQEGLRTFRQLDAISSLPTPSDIFVSYSTFPGFVSWRDPKSGSWYVETLDDIFEQWAHSEDLQSLLLRVANAVSVKGIYKQMPGCFNFLRKKLFFKTSASRA,did not lower basal activity
10,D327K: chimeric modified caspase-9 polypeptide variant (protein) VDGFGDVGALESLRGNADLAYILSMEPCGHCLIINNVNFCRESGLRTRTGSNIDCEKLRRRFSSLHFMVEVKGDLTAKKMVLALLELARQDHGALDCCVVVILSHGCQASHLQFPGAVYGTDGCPVSVEKIVNIFNGTSCPSLGGKPKLFFIQACGGEQKDHGFEVASTSPEDESPGSNPEPDATPFQEGLRTFKQLDAISSLPTPSDIFVSYSTFPGFVSWRDPKSGSWYVETLDDIFEQWAHSEDLQSLLLRVANAVSVKGIYKQMPGCFNFLRKKLFFKTSASRA,did not lower basal activity
